In paper doi:10.1101/2024.10.21.619419 (bioRxiv, 2024):

Molecular target: the molecule itself
Test: SEC

B1: Bxb1 residues 2-500 (enzyme, Mycobacteriophage Bxb1, UniProt Q9B086 2-500, looked up)
chain: RALVVIRLSRVTDATTSPERQLESCQQLCAQRGWDVVGVAEDLDVSGAVDPFDRKRRPNLARWLAFEEQPFDVIVAYRVDRLTRSIRHLQQLVHWAEDHKKLVVSATEAHFDTTTPFAAVVIALMGTVAQMELEAIKERNRSAAHFNIRAGKYRGSLPPWGYLPTRVDGEWRLVPDPVQRERILEVYHRVVDNHEPLHLVAHDLNRRGVLSPKDYFAQLQGREPQGREWSATALKRSMISEAMLGYATLNGKTVRDDDGAPLVRAEPILTREQLEALRAELVKTSRAKPAVSTPSLLLRVLFCAVCGEPAYKFAGGGRKHPRYRCRSMGFPKHCGNGTVAMAEWDAFCEEQVLDLLGDAERLEKVWVAGSDSAVELAEVNAELVDLTSLIGSPAYRAGSPQREALDARIAALAARQEELEGLEARPSGWEWRETGQRFGDWWREQDTAAKNTWLRSMNVRLTFDVRGGLTRTIDFGDLQEYEQHLRLGSVVERLHTGMS
**Q.** Which “stoichiometry N” value does the source give for B1 here?
**A.** Its value is 2.
